Experiment: yeast display, Sf9 membrane polyspecificity reagent, FACS + sequencing; frameworks hold sequencing errors
How it was run: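 A synthetic nanobody library was expressed on Saccharomyces cerevisiae BJ5465 by galactose induction for 36–48 hours. The library was stained for 1 hour at 4 °C with 10% biotinylated, detergent-solubilized Sf9 membrane reagent and enriched with streptavidin microbeads before FACS. Low and high (top ~1%) gates were set on anti-HA fluorescence for expression and streptavidin fluorescence for reagent binding, and each polyreactivity label reflects the gate of origin.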

Sequence | polyreactivity (PSR sort gate)
QVQIVESGGGLVQAGGSLRLSCAASGRILEGYAMGWYRQAPGKERELVAAISFSTTTTYYADSVKGRFTISRDNAKNTVYLQMNSLKPEDTAVYYCAADSQQSDYDYWGQGTQVTVSS | high polyreactivity
QVQIVESGGGLVQAGGSLRLSCAASGRSFYKYAMGWYRQAPGKERELVAAISKSGGRTYYADSVKGRFTISRDNAKNTVYLQMNSLKPEDTAVYYCAAEPFIPDQSRYYYWGQGTQVTVSS | high polyreactivity
QVQIVESGGGLVQAGGSLRLSCAASGRTFNGYAMGWYRQAPGKERELVARITYRGGGTYYADSVKGRFTISRDNAKNTVYLQMNSLKPEDTAVYYCNAVYHSSGRMGYWGQGTQVTLSS | high polyreactivity
QVQIVESGGGLVQAGGSLRLSCAASGRTFRTYAMGWSRPAPGKEREMVAAIRSNAGSTYYADSVKGRFTISRDNAKNTVYLQMHSLKPEDTAVYYCAKSYRSSRRYNYWGQGTQVTVSS | high polyreactivity
QVQIVESGGGLVQAGGSLRLSCAASGRTFTHYAMGWYRQAPGKERELVAAISSGGGTYYADSVKGRFTIARDNAKKTVYLQMNSLKPEDTAVYYCNADYSNYLDPFRTYGYWGQGTQVTVSS | low polyreactivity
QVQIVESGGGLVQAGGSLRLSCAASGRTLRYYSMGWYRQAPGKERELVAAISGSGGRTYYADSVKGRFTISRDNAKNTVYLQMNSLKPVDTAVYYCAKRYYRTAGDMDYWGLGTQVTVSS | high polyreactivity
QVQIVESGGGLVQAGGSLRLSCAASGSIFGPYVMGWYRQAPGKERELVAAISKSRGSTYYADSVKGRFTISRDNAKNTVYLQMNSLKPEDTAVYYCATDYLGGGKRYYYWGQGTQVTVSS | high polyreactivity
QVQIVESGGGLVQAGGSLRLSCAASGSIFGYAMGWYRPAPGKERELVAAISFSGVSTYYADSVKGRFTISRDNAKNTVYLQMNSLKPEDTAVYYCNAYSDGDEDYWGQGTQVTVSS | low polyreactivity
QVQIVESGGGLVQAGGSLRLSCAASGSIFQFYAMGWSRQAPGKERELVAVITTSGVSTYYADSVKGRFTISRDNAKYTVYLQMNSLKPEDTAVYYCAADDYYLAGDYWGQGTQVTVSS | low polyreactivity
QVQIVESGGGLVQAGGSLRLSCAASGSIFVVNAMGWYRQAPRKERELVAAIDWSGDTTYYADSEKGRFTISRDYAKNTVYFQMNSLKPEDTAVYYCAAEYEFHEYDYWGQGTQVTVSS | high polyreactivity
QVQIVESGGGLVQAGGSLRLSCAASGSTFARNAMGWYRQAPGKEREFVASIRWGGVSTYYADSVKGRFTISRDNAKNTVYLQMNSLKPEDTAVYYCATGRKNAAQRWGYYYWGQGTQVTVSS | high polyreactivity
QVQIVESGGGLVQAGGSLRLSCAASGSTFGGNAMGWYRQAPGKERDLVAVISKRGGSKYYADSVKGRFTISRDNAKNTVYLQMNSLKPEDTAVYYCAATYSRYWSPTYDYWGQGTQVNVSS | high polyreactivity
QVQIVESGGGLVQAGGSLRLSCAASGSTFGRYAMGWYRQAPGKEREMVAAISASGGSTYYADSVKGRFTISRDYAKNTVYVQMNSLKPEDTAVYYCAALIDVITCQYDYWGHGTQVTVSS | high polyreactivity
QVQIVESGGGLVQAGGSLRLSCAASGSTFRRYVMGWYRQAPGKERELVAAISWSGTSTNYADSLKGRFTISRDNAKNTVYLHMNSLKPEDTAVYYCATQSLYYRWGLDYCGQGTQVTVSS | high polyreactivity
QVQIVESGGGLVQAGGSLRLSCAASGSTFTFYAMGSYRQAPGKERELVASITQSTGSTHYADSVKGRFTISRDNEKNTVFLQMNSLNPEDTAVYYCKAQKIVYYLVTLFPYYYWGQGSQVTVSS | low polyreactivity
QVQIVESGGGLVQAGGSLRLSCAASGYIFPYYAMGWYRQAPGKERELVAGITTDGSSTYYADSVKGRFTISRDNAKNTVYLQMNSLNPEDTAVYYFYVYPGYTWGWYDYWGQGTQVTVSS | low polyreactivity
QVQIVESGGGLVQAGGSLRLSCAASGYIFSVYAMGWYRQAPGKERELVAAITFRTGRTYYADSVKWRFTISRDNAKNTVYLQMNSLKPEDTAVSYCAADGYWTTFYNLYGYWGQGTQVTVSS | high polyreactivity
QVQIVESGGGLVQAGGSLRLSCADSGRIFYLYDMGWYRQAPGKERELVATISCSGGSTYYADSVMGRFTISRDNAKNTVYLQMNSLKPEDTALYYCAAVSVSSWYDYWGQGTQVTVSS | low polyreactivity
QVQIVESGGGLVQAGGSLRLSCASSGRIFHRYAMGWYRQAPGKERELVAAISYSTARTYYADSVKGRFTISRDNAKNTVYLQMNSLKPEDTAVYYCAAKDERRSFGMGYWGQGTQVTVSS | high polyreactivity
QVQIVESGGGLVQAGGSLRLSCPASGGIFTKNAMGWYRQAPGKERELVAGISRTGGNTYYADSVKGRFTISRDNAKNNVYLQMKSLKPEDTAVYYCKALYGGPHRLRYDYWGQGTQVTVSS | low polyreactivity
QVQIVESGGGLVQAGGSLRLSGAASGLIFKYYDMGWSRQAPGKERELVASISRSGGRTYYADSVMGRFTISRDNAMNTVYLQMNSLKPEDTAVYYCNADTWLYWDGDDYWGQGTQVTVSS | high polyreactivity
QVQIVESGGGLVQAGGSLRLTCAASGFTFGPYAMGWYRQEPGKERELVAAITVNGSSTYADSVKGRFTISRDNAKNTVVLQMNSLKPEDTAVYYCAATVYPGGPYGGDSDYWGQGTQVTVSS | low polyreactivity

Sequence | polyreactivity (PSR sort gate)
QVQIVESGGGLVQAGGSLRLTCAASGLTFTGNAMGWYIQAPGKERELVAAISWSGGSKYYADSVKGRYTISRDNAKNTVYLQMNSLQPEDTAVYYCADPDARYDYWGQGTQVTVSS | high polyreactivity
QVQIVESGGGLVQAGGTLRISCAASGFTLYYYAMGWSRQAPGKERELVAAITSSGTSTYYADSVKGRFTISRDNAKNTVYLQMNSLKPEDTAVYYCAAVSKIYHYRAVRLDDYWGQGTQVSVSS | low polyreactivity
QVQIVESGGGLVQAGRSLRLSCAASGFIFFPYVMGWYRPAPVKERELVARITSGGGSTYYADSVKGRFSISRDNAKNTVYLEMYSLKPEDTAVYYCAARFRFPPSYDYWGQCTQVTVSS | high polyreactivity
QVQIVESGGGLVQAGRSLRLSCAASGIIFRRYAMGWYRQAPGKETELVAAISSRGGSTYYADSVKGRFTISRDNAKNTVYLQMNSLKPEDTAVYYCAKGFSGTGGSGDFGYWGQGTQVTVSS | high polyreactivity
QVQIVESGGGLVQAGRSLRLSCAASGRTFYRNAMGWYRQAPGKERELVAAITWRTGNTYFADSVKGRFTISRDNAKNTVYLQMNSLKQEDTAVYYCNRVPYYGHPFRVSGDYWGQCTQVTVSS | low polyreactivity
QVQIVESGGGLVQAGRSLSLSCAASGYTFLPNVMGWYRQAPGKERELVAAIYSRGGRTYYADSVKGRFTISRDNAKNTVYLQMNSLKPEDTAVYYCAAYTRYTTGSAGIYRDDYWGQGTQVTVSS | high polyreactivity
QVQIVESGGGLVQAGVSLRLSCAASGRTSDGYAMGWYRQAPGKESELVAGITEGGGDTYYADSVKGRFTISRDNAKNTVYLQMNSLKPEDTAVYYCNAVEGSRLPYDYWGQGTQVTVSS | low polyreactivity
QVQIVESGGGLVQPGCSLRLSCAASGRIFYVYAMGWYRQAPGTEWELVASITNGGRTNYADSVKGRFTISRDNAKNTFYLQMNSLKPEDTAVYYCATAASNYLDYVGKYRYDYWVQGTQVTVSS | low polyreactivity
QVQIVESGGGLVQSGGSLRLSCAASGIIFSSNAMGWYRQAPGKERELVAAISRRGGSTYYADSVKGRFTISRDKAKNTVYLQMNSLKPEDTAVYYFIALLYNVAGYDYWGQGTQVTVSS | high polyreactivity
QVQIVESGGGVVQAGGSLRLSCAASGLIFPAYTMGWYRQAPGKERELVAAISRSGGSTYYADSVKGRFTISRDNAKNTVSLQMNSLNPEDTAVYYCAAQGYFVDRAGRYYRGDYWGQGTQVTVSS | high polyreactivity
QVQIVESVGGLVQAGGSLRLSCAASGRTFPYYAKGRYRQAPGKEREMVATISTADSTYYADSVKGRFTISRDNAKNTVYLQMNRLITEATEVYYCAKDRYTYWSVHAFRRLDYWGQGTQLTVSS | low polyreactivity
QVQLADSGGGLVQAGGSLRLICAASGSIIRNKAMGWYRQAPGKERELVAAITSTGTGTYYADSVKGRFTISRDYAKNTVYLQMNRVKPEDPAVYYCAVDDEFEFGYWGQGTQVTVSS | low polyreactivity
QVQLAESGRGLVQAGGSLRLSCADSGIIYYFYAMGWYRQAPGKETEFVAAISGTGGRTYYADSVKGRFTISRDNAKNTVYLQMNSLKPEDTAVYYCNADDTPVPSIRFDYWGQGTQVTVSS | low polyreactivity
QVQLAETGGGLVQAGGSLRLSCAASGSTFSVYAMGWYRQSPGKERELVATIPRGGSTYADSVKGRLTISRDNAKNTVYLQMNSLKPEDTAVYYCAADAYVSSQPMDYWGQGTQVTVSS | high polyreactivity
QVQLEDSGGGLVQAGGSLRLSCAASGFTFYSNAMGWYRQAPGKERELVAAITRGGGSTYYADSVKGRFTISRDNAKNTVYLQMNSLKPEDTAVYYCAAEMFAPYRSTYDYWGQGTQVTVSS | low polyreactivity
QVQLEEAGGGLVQAGGSLSLSCAASGSILKVYAMGWSRQAPGQERELVAGNTRAGGSTNDADSVKGRFTISRDYAKNTVLLQMNSLKPEDTPVYYCAGRLKCYRRRDYWGQGTQVSVSS | high polyreactivity
QVQLEESAGGLVQAGGSLRLSCAASGRTFRRYAMGWYRPAPGKERELVAVISSGGRTNYADSVKGRFTISRDNAKNTVYLQLNSLKPEDTAVYYCNAGPLYSGVYSGYFWGQGTQVTVSS | high polyreactivity
QVQLEESCGGLVQAGGSLRLSCAASGSTFTIYAMGWYRQAPGKERELVAVISSSGGSTYYADSVKGRFTISRDNAKNTVYLQMNSLKPEDTAVYYCAADTRYFGGYLTLYYWGQGTQVTVSS | low polyreactivity
QVQLEESGAGLVQAGCSLRLSCAASGSTLFNNAMGWYRQAPGKERELVAAITFSGASTYYADSVKGRFTISRDNAKNTVYLQMNSLKPEDTAVYYCGADPSFNYIPVYYFDYDYWGQATQVTVSS | low polyreactivity
QVQLEESGAGLVQAGGSLRLCCAASGNTFSSNAMGLYTQAPGKEMELVAGITKSGGRTYYADSVKGRFTISRDNAQYTVYLHMNSLKPEDSAVFYCNRRAGPFSIQYYYWGQVTQVTVSS | high polyreactivity
QVQLEESGAGLVQAGGSLRLSCAASGITFYYNDMGWYRQAPGKEREMVASISGDGGSTYYADSVKGRFTISRDNAKNTVYLQMNSLKPEDTAVFYCAASAGYYEVLYDYWGQGTQVTVSS | low polyreactivity
